Assay results published in patent US20230295324A1 (published 2023).
Where a chain is given by its changes, count along the chain named. Numbers in names are those of the source. Read-outs that look alike come from different tables or passages of the source. Values belong to the binder of their own block, whether it stands above or below them.

Legend:
[1] = target: T1, human PD-L1 on MDA-MB-231 cells (human, UniProt Q9NZQ7 19-290); assay: FACS, MDA-MB-231 cells (human PD-L1)
T1 construct: whole, on cells
Protocol: (§1) This example is intended to investigate the in vitro binding activity of OX40×TAA bispecific antibodies obtained in Example 9 to tumor-associated antigens (TAAs). […] Briefly, those cells were digested, resuspended in a complete medium, and washed with PBS, and the cell density was adjusted to 1×10⁶ cells/ml with PBS. The cells were seeded in a 96-well V-bottom plate (Corning, #3894) at 100 μL/well, and centrifuged, and then the supernatant was discarded. Then, the test antibodies diluted in a 3-fold gradient were added at 100 μL/well. The cells were incubated at 4° C. for 1 h away from light. Thereafter, the cells in each well were rinsed twice with 100 μL of pre-cooled PBS, and centrifuged at 500 g at 4° C. for 5 min, and then the supernatant was discarded. […] The plate was incubated away from light at 4° C. for 30 min. The cells in each well were rinsed twice with 100 μL of pre-cooled PBS, and centrifuged at 500 g at 4° C. for 5 min, and then the supernatant was discarded. Finally, the cells in each well were resuspended in 200 μL of pre-cooled PBS, and the fluorescence signal values were read using NovoCyte flow cytometer (ACEA Biosciences).

[2] = target: T2, human OX40 on cells (CHO-K1/hu OX40) (human, UniProt P43489 29-277); assay: FACS, CHO-K1/hu OX40 cells
T2 construct: whole, on cells; Also used here for OX40 on the HEK293/OX40/NF-kb reporter cells and on human T cells in the functional assays; also called CHO-K1/OX40; human OX40 cells
T2 sequence (looked up): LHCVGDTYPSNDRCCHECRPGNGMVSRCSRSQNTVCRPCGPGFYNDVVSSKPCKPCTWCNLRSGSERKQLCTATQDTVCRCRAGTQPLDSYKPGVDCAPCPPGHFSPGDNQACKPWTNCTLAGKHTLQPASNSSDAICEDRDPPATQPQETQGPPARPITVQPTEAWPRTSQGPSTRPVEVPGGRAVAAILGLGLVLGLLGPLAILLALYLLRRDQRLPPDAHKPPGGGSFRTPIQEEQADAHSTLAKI
Protocol: This example is intended to investigate the in vitro binding activity of OX40×TAA bispecific antibodies obtained in Example 9 to human OX40. The antibody binding assay at the cellular level was performed using a CHO-K1 cell strain overexpressing human OX40 (CHO-K1/hu OX40). Briefly, CHO-K1/hu OX40 cells were digested, resuspended in an F12K complete medium, and washed with PBS, and the cell density was adjusted to 1×10⁶ cells/ml with PBS. The cells were seeded in a 96-well V-bottom plate (Corning, #3894) at 100 μL/well, followed by the addition of test antibodies diluted in a 3-fold gradient at concentrations that were 2 times the final concentrations at 100 μL/well. The cells were incubated at 4° C. for 1 h away from light. Thereafter, the cells in each well were rinsed twice with 100 μL of pre-cooled PBS, and centrifuged at 500 g at 4° C. for 5 min, and then the supernatant was discarded. […] The plate was incubated away from light at 4° C. for 30 min. The cells in each well were rinsed twice with 100 μL of pre-cooled PBS, and centrifuged at 500 g at 4° C. for 5 min, and then the supernatant was discarded. Finally, the cells in each well were resuspended in 200 μL of pre-cooled PBS, and the fluorescence signal values were read using NovoCyte flow cytometer (ACEA Biosciences).

[3] = target: T3, human PSMA on LNCAP cells (human, UniProt Q04609 1-750); assay: FACS, LNCAP cells (human PSMA)
T3 construct: whole, on cells
Protocol: as §1

[4] = target: T2, human OX40 on cells (CHO-K1/hu OX40); assay: cell-based or functional assay
[5] = target: T2, human OX40 on cells (CHO-K1/hu OX40); assay: cell-based or functional assay; remark: listed apart in the source
[6] = target: T2, human OX40 on cells (CHO-K1/hu OX40); assay: FACS, CHO-K1/hu OX40 cells; remark: listed apart in the source
Protocol: This example is intended to investigate the in vitro binding activity of anti-human OX40 HCAb monoclonal antibodies to human OX40. The antibody binding assay at the cellular level was performed using a stable CHO-K1 cell strain overexpressing human OX40 (CHO-K1/hu OX40). Briefly, the CHO-K1/hu OX40 cells were digested, resuspended in an F12K complete medium and washed once with PBS. The cell density was adjusted to 1×10⁶ cells/mL with PBS. The cells were seeded in a 96-well V-bottom plate (Corning, #3894) at 100 μL/well, and centrifuged, and then the supernatant was discarded. Then, the test antibodies diluted in a 3-fold gradient at concentrations that were 2 times the final concentrations were added at 100 μL/well. The cells were incubated at 4° C. for 1 h away from light. Thereafter, the cells in each well were rinsed twice with 100 μL of pre-cooled PBS, and centrifuged at 500 g at 4° C. for 5 min, and then the supernatant was discarded. […] The plate was incubated away from light at 4° C. for 30 min. The cells in each well were rinsed twice with 100 μL of pre-cooled PBS, and centrifuged at 500 g at 4° C. for 5 min, and then the supernatant was discarded. Finally, the cells in each well were resuspended in 200 μL of pre-cooled PBS, and the fluorescence signal values were read using a BD FACS CANTOII.

[7] = target: T4, cynomolgus monkey OX40 protein (Novoprotein, #CB17) (cynomolgus monkey); assay: ELISA, coated cyno OX40 protein
T4 construct: Bought recombinant protein; also called cyno OX40
Protocol: (§2) This example is intended to investigate the in vitro binding activity of the anti-OX40 HCAb monoclonal antibodies prepared in Example 1 to human and cynomolgus monkey OX40 proteins. The antibody binding assay at the protein level was performed using a human OX40 protein (Acro biosystem, #OX0-H5224) and a cynomolgus monkey OX40 protein (Novoprotein, #CB17). Briefly, a 384-well plate (PerkinElmer, #6007509) was coated with 1 μg/mL human OX40 protein and a cynomolgus monkey OX40 protein dissolved in PBS at 20 μL/well, and incubated at 4° C. overnight. The next day, the 384-well plate was washed three times with PBS containing 0.05% Tween (MEDICAGO, #09-9410-100), and blocked with PBS containing 2% milk (Bio-Rad, #170-6404) at 37° C. for 1 h. […] The plate was added with a stop buffer (BBI life sciences, #E661006-0200) at 20 μL/well, and read for OD₄₅₀₋₆₅₀ values using a plate reader (Molecular Devices, model: SpectraMax Plus). The values were analyzed with Graphad 8.0 and plotted.

[8] = target: T5, human OX40 protein (Acro biosystem, #OX0-H5224) (human, UniProt P43489 29-216); assay: ELISA, coated human OX40 protein
T5 construct: Bought recombinant protein
T5 sequence (looked up): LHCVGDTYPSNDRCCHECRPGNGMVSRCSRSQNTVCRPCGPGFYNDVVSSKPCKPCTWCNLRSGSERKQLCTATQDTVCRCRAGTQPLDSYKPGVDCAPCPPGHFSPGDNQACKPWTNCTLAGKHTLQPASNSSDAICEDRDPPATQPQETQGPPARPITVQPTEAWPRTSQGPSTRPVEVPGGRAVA
Protocol: as §2

[9] = target: T5, human OX40 protein (Acro biosystem, …); assay: BLI, antibody on ProA sensor, 1:1 global fit
Protocol: (§3) The binding kinetics between the antigen and the antibody was analyzed by the Biolayer Interferometry (BLI) technique using an Octet Red 96e molecular interaction analyzer (Fortebio).
(§4) The association and dissociation signals between the OX40 antibodies and OX40 proteins were recorded by Octet Red 96 in real time. When data analysis was performed using Octet Data Analysis software (Fortebio, version 11.0), 0 nM was used as a reference hole, and reference subtraction was performed; the “1:1 Global fitting” method was selected to fit the data, and the kinetics parameters of the binding of antigens to antigen-binding proteins were calculated, with kon(1/Ms) values, kdis(1/s) values and KD(M) values obtained.

[10] = target: T4, cynomolgus monkey OX40 protein …; assay: BLI, antibody on ProA sensor, 1:1 global fit
Protocol: as §3, §4

[11] = target: T2, human OX40 on cells (CHO-K1/hu OX40); assay: FACS, blocking of biotin-human OX40L on CHO-K1/hu OX40 cells
Protocol: Briefly, the CHO-K1/hu OX40 cells were digested and resuspended in an F-12K complete medium, and the cell density was adjusted to 1×10⁶ cells/mL. The cells were seeded in a 96-well V-bottom plate (Corning, #3894) at 100 μL/well, and centrifuged, and then the supernatant was discarded. The test antigen-binding proteins diluted in a 3-fold gradient at concentrations that were 2 times the final concentrations were added at 100 μL/well, and the mixture was well mixed, wherein the antigen-binding protein had the highest final concentration of 100 nM, and a total of 8 concentrations were obtained. […] The cells were incubated at 4° C. for 1 h away from light. Thereafter, the cells were centrifuged at 4° C. for 5 min, and then the supernatant was discarded. […] The cells in each well were rinsed twice with 100 μL of pre-cooled PBS, and centrifuged at 500 g at 4° C. for 5 min, and then the supernatant was discarded. A 1:200 fluorescent secondary antibody PE Streptavidin (BD Biosciences, #554061) was added at 100 μL/well, and the cells were incubated away from light at 4° C. for 30 min. The cells in each well were rinsed twice with 200 μL of pre-cooled PBS, and centrifuged at 500 g at 4° C. for 5 min, and then the supernatant was discarded. Finally, the cells in each well were resuspended in 200 μL of precooled PBS. Fluorescence signal values were read using BD FACS CANTOII, and IC50 was calculated. Inhibition rate %={average MFI of non-blocking control well−MFI value of OX40 antibody}/{(average MFI of non-blocking control well)−average MFI of 100% blocking control well)}×100%.

T3 sequence (Q04609 whole entry): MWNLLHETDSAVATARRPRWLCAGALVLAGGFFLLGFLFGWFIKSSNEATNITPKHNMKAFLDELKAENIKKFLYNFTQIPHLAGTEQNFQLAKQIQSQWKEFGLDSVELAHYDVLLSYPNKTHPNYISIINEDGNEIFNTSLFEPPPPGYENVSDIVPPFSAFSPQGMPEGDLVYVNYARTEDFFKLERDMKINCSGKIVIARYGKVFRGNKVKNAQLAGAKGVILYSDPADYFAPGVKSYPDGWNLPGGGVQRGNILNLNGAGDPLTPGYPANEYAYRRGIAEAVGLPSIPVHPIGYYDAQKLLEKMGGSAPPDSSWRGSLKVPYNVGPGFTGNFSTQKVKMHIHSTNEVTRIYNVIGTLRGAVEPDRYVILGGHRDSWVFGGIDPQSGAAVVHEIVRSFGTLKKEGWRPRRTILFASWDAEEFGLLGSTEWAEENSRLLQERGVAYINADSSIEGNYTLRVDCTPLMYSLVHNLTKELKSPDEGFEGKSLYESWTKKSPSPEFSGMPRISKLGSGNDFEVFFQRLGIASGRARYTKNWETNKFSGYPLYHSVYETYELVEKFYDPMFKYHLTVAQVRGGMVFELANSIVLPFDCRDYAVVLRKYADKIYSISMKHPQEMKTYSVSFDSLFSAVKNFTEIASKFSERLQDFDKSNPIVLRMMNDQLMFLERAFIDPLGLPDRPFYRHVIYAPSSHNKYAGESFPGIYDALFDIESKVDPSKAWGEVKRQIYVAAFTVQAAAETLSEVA
T1 sequence (Q9NZQ7 19-290): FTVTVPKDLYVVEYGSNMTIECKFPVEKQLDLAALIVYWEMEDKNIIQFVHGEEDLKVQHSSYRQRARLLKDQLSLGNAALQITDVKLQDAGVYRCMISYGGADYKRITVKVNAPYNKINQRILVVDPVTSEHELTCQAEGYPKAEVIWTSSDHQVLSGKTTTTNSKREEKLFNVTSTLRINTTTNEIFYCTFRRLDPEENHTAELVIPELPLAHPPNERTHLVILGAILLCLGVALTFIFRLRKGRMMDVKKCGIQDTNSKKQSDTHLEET

B1: PR000265 (antibody, human IgG1, kappa, N297A, V domains shown)
VH: EVQLVESGGGLVQPGGSLRLSCAASGFTFSSYWMSWVRQAPGKGLEWVANIKQEGSEKYYVDSVKGRFTISRDNAKNSLYLQMNSLRAEDTAVYYCARDRAVAGAFDIWGQGTMVTVSS
VL: DIQMTQSPSTLSASVGDRVTVTCRASQSIYIWLAWYQQKPGKAPNLLIYKASSLETGVPSRFSGSGSGTEFTLTISSLQPDDFATYYCQQYYGSSRTFGQGTKVEIKR
notes: H2L2 parental antibody against PD-L1; also called anti-PD-L1 monoclonal antibody; H2L2 antibody
- EC50 [1]: 0.605 nM

B3: PR000327 (antibody, V domains shown)
VH: QVQLVESGGGLVKPGESLRLSCAASGFTFSDYYMYWVRQAPGKGLEWVAIISDGGYYTYYSDIIKGRFTISRDNAKNSLYLQMNSLKAEDTAVYYCARGFPLLRHGAMDYWGQGTLVTVSS
VL: DIQMTQSPSSLSASVGDRVTITCKASQNVDTNVAWYQQKPGQAPKSLIYSASYRYSDVPSRFSGSASGTDFTLTISSVQSEDFATYYCQQYDSYPYTFGGGTKLEIK
- EC50 [3]: 3.02 nM

B4: PR001331 (antibody, human IgG1, kappa, V domains shown)
VH: QVQLVESGGGVVQPGRSLRLSCSASGFTFINYGMNWVRQAPGKGLEWVAVIWYDGSNKYYADSVRGRFTISRDNSKNTLYLQMNSLRAEDTAVYYCARGPGYGGHSDAFDIWGQGTMVTVSS
VL: DIQMTQSPSSLSASIGDRVTITCRASQSINSYLNWYQQKPGKAPKLLIYTASSLLSGVPSRFSASGSWTDFSLTISSLQPEDFATYYCQQSFSTPYTFGQGTNLEIKR
notes: H2L2 parental antibody against PSMA; also called anti-PSMA H2L2 antibody
- EC50 [3]: 2.58 nM

B5: PR002066 (antibody, human IgG1, V domains shown)
VH: EVQLLESGGGLVQPGGSLRLSCIASGFTFSSYAMSWVRQAPGKGLEWVSAISGRGGSTFYADSVRGRFTISRDNSKNTLYLQMNSLRAEDTAVYYCANGMTGTTDVDYWGQGTQVTVSS
notes: no light chain; also called anti-OX40 HCAb antibody
- EC50, HEK293/OX40/NF-kb luciferase reporter [4]: 5.45 nM
- Maximum fluorescence signal value, HEK293/OX40/NF-kb luciferase reporter [4]: 147000 luminescence
- EC50, IFN-γ release by human T cells with OKT3 and CHO-K1-CD32b cells [5]: 0.031 nM
- Maximum IFN-γ release value [5]: 1870
- EC50 [6]: 4.67 nM
- Maximum MFI [6]: 3010 MFI
- EC50 [7]: 0.37 nM
- Maximum OD [7]: 2.44 OD
- EC50 [8]: 0.118 nM
- Maximum OD [8]: 2.47 OD
- Kd [9]: 8.71 nM
- koff [9]: 0.000387 s⁻¹
- kon [9]: 44400 M⁻¹ s⁻¹
- Kd [10]: 22.7 nM
- koff [10]: 0.00097 s⁻¹
- kon [10]: 42700 M⁻¹ s⁻¹
- IC50 [11]: 67.6 nM
- Maximum inhibition rate (%) [11]: 58%

Results, then the binder that gave them:

- EC50 [2]: 4.96 nM
- Maximum MFI [2]: 287000 MFI
- EC50 [3]: 6.7 nM
B2: PR004284 (bispecific antibody, human IgG1, kappa, L234A L235A)
light: DIQMTQSPSSLSASIGDRVTITCRASQSINSYLNWYQQKPGKAPKLLIYTASSLLSGVPSRFSASGSWTDFSLTISSLQPEDFATYYCQQSFSTPYTFGQGTNLEIKRTVAAPSVFIFPPSDEQLKSGTASVVCLLNNFYPREAKVQWKVDNALQSGNSQESVTEQDSKDSTYSLSSTLTLSKADYEKHKVYACEVTHQGLSSPVTKSFNRGEC
heavy: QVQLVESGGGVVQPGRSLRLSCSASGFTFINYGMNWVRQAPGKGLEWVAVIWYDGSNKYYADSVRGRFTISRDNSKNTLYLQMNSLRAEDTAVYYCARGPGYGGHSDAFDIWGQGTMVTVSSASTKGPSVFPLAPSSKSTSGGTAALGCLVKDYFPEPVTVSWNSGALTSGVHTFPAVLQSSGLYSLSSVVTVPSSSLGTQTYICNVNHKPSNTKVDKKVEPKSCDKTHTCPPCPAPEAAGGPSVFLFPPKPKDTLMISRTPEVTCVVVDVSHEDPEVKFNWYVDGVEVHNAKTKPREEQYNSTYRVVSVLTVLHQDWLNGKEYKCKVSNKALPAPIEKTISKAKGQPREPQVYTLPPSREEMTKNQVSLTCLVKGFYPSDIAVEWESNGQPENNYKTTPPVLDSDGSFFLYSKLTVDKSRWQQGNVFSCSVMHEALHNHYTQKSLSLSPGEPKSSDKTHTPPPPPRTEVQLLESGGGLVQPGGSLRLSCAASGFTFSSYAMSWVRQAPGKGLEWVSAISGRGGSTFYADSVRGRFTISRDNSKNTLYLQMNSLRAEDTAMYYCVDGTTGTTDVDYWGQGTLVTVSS
notes: IgG-VH tetravalent symmetric structure: PR001331 IgG (anti-PSMA) with the VH of PR002067 via linker H1_15-RT; human IgG1 Fc (L234A, L235A); also called PSMAxOX40 bispecific antibody

- EC50, HEK293/OX40/NF-kb luciferase reporter [4]: 3.51 nM
- Maximum fluorescence signal value, HEK293/OX40/NF-kb luciferase reporter [4]: 113000 luminescence
- EC50 [6]: 7.22 nM
- Maximum MFI [6]: 3980 MFI
- EC50 [7]: 0.441 nM
- Maximum OD [7]: 2.73 OD
- EC50 [8]: 0.146 nM
- Maximum OD [8]: 2.67 OD
- Kd [9]: 10.6 nM
- koff [9]: 0.000364 s⁻¹
- kon [9]: 34300 M⁻¹ s⁻¹
- Kd [10]: 22.1 nM
- koff [10]: 0.000722 s⁻¹
- kon [10]: 32700 M⁻¹ s⁻¹
- IC50 [11]: 41.1 nM
- Maximum inhibition rate (%) [11]: 34%
B6: PR002077 (antibody, human IgG1, V domains shown)
VH: B5 VH with I23A, G56N, S57I, M100I, Q114L
notes: as for B5
